Values quoted from earlier work in PMC7531836.

Biological target: C5 (Homo sapiens) (UniProt P01031)

## eculizumab
  Kd: 0.12 nM
